Measurements published in article PMC9482650, “Quantitative fragmentomics allow affinity mapping of interactomes” (Nature Communications, 2022).

B1: KIRREL2, Q6UWL6 (peptide)
chain: PSHPRLQTHV
B2: RPS6KA3, P51812 (peptide)
chain: GIKKITSTAL

Target: T1, MPDZ_5, O75970
T1 sequence (O75970 695-796, limits assumed, looked up): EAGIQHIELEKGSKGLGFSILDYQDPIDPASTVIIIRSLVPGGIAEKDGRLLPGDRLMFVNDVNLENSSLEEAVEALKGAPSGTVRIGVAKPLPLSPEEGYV
Assay: holdup assay
Design: key: below the threshold = too weak to quantify, mostly under pKd 3.1 to 4
Conditions: plain residues with an end cap or a label only (N-terminal biotin on a linker: ado-ado)

Binder	pKd
B1	below the threshold
B2	below the threshold

Target: T2, MPP7, Q5T2T1
T2 sequence (Q5T2T1 134-230, limits assumed, looked up): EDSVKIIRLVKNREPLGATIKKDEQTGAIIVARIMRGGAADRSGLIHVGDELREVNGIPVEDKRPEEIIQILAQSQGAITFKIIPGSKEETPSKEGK
Assay: holdup assay
Design: key: below the threshold = too weak to quantify, mostly under pKd 3.1 to 4
Conditions: plain residues with an end cap or a label only (N-terminal biotin on a linker: ado-ado)

Binder	pKd
B1	below the threshold
B2	below the threshold

Target: T3, ARHGAP21, Q5T5U3
T3 sequence (Q5T5U3 45-169, limits assumed, looked up): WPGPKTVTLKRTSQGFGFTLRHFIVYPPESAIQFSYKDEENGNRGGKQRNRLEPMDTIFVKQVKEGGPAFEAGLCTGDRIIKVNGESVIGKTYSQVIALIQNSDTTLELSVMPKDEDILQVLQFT
Assay: holdup assay
Design: key: below the threshold = too weak to quantify, mostly under pKd 3.1 to 4
Conditions: plain residues with an end cap or a label only (N-terminal biotin on a linker: ado-ado)

Binder	pKd
B1	below the threshold
B2	3.93

Target: T4, MPDZ_10, O75970
T4 sequence (O75970 1624-1722, limits assumed, looked up): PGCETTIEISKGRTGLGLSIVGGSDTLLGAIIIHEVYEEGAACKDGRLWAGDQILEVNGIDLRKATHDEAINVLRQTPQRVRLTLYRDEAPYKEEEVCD
Assay: holdup assay
Design: key: below the threshold = too weak to quantify, mostly under pKd 3.1 to 4
Conditions: plain residues with an end cap or a label only (N-terminal biotin on a linker: ado-ado)

Binder	pKd
B1	below the threshold
B2	3.59

Target: T5, PDZD2_2, O15018
T5 sequence (O15018 329-429, limits assumed, looked up): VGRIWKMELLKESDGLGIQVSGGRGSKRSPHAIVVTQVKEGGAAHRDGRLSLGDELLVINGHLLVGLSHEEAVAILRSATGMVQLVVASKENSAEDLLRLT
Assay: holdup assay
Design: key: below the threshold = too weak to quantify, mostly under pKd 3.1 to 4
Conditions: plain residues with an end cap or a label only (N-terminal biotin on a linker: ado-ado)

Binder	pKd
B1	4.23
B2	3.57

Target: PARD3_3, Q8TEW0
Assay: holdup assay
Design: key: below the threshold = too weak to quantify, mostly under pKd 3.1 to 4
Conditions: plain residues with an end cap or a label only (N-terminal biotin on a linker: ado-ado)

Sequence of PARD3_3, Q8TEW0 (Q8TEW0 582-685): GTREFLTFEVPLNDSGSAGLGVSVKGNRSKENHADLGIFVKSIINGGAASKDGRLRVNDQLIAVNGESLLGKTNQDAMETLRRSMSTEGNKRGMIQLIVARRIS

Binder	pKd
B1	below the threshold
B2	3.51

Target: T6, APBA1_1, Q02410
T6 sequence (Q02410 651-752, limits assumed, looked up): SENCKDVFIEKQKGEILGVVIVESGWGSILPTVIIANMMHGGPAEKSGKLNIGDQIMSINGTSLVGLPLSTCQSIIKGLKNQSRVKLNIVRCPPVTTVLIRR
Assay: holdup assay
Design: key: below the threshold = too weak to quantify, mostly under pKd 3.1 to 4
Conditions: plain residues with an end cap or a label only (N-terminal biotin on a linker: ado-ado)

Binder	pKd
B1	below the threshold
B2	below the threshold

Target: T7, NHERF3_1, Q5T2W1
T7 sequence (Q5T2W1 4-100, limits assumed, looked up): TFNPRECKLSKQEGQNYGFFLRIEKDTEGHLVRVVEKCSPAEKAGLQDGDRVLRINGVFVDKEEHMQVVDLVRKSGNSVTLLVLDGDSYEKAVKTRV
Assay: holdup assay
Design: key: below the threshold = too weak to quantify, mostly under pKd 3.1 to 4
Conditions: plain residues with an end cap or a label only (N-terminal biotin on a linker: ado-ado)

Binder	pKd
B1	4.57
B2	5.64

Target: T8, TX1BP3, O14907
T8 sequence (O14907 10-122, limits assumed, looked up): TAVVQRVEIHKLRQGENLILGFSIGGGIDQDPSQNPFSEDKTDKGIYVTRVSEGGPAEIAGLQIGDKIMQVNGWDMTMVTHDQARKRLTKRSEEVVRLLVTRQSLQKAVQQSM
Assay: holdup assay
Design: key: below the threshold = too weak to quantify, mostly under pKd 3.1 to 4
Conditions: plain residues with an end cap or a label only (N-terminal biotin on a linker: ado-ado)

Binder	pKd
B1	4.64
B2	4.59

Target: MAST2, Q6P0Q8
Assay: holdup assay
Design: key: below the threshold = too weak to quantify, mostly under pKd 3.1 to 4
Conditions: plain residues with an end cap or a label only (N-terminal biotin on a linker: ado-ado)

Sequence of MAST2, Q6P0Q8 (Q6P0Q8 1099-1202): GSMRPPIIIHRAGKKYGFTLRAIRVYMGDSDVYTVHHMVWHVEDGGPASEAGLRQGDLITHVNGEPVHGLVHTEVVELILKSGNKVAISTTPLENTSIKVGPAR

Binder	pKd
B1	5.5
B2	5.88

Target: DLG4_1, P78352
Assay: holdup assay
Design: key: below the threshold = too weak to quantify, mostly under pKd 3.1 to 4
Conditions: plain residues with an end cap or a label only (N-terminal biotin on a linker: ado-ado)

Sequence of DLG4_1, P78352 (P78352 62-152): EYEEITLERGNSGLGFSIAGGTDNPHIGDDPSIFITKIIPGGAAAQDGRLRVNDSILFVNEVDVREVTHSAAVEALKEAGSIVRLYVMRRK

Binder	pKd
B1	4.06
B2	3.76

Target: PICK1, Q9NRD5
Assay: holdup assay
Design: key: below the threshold = too weak to quantify, mostly under pKd 3.1 to 4
Conditions: plain residues with an end cap or a label only (N-terminal biotin on a linker: ado-ado)

Sequence of PICK1, Q9NRD5 (Q9NRD5 17-115): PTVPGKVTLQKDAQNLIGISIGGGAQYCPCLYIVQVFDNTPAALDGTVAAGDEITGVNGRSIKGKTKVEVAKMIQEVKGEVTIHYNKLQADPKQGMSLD

Binder	pKd
B1	below the threshold
B2	below the threshold

Target: Inadl_4, Q8NI35
Assay: holdup assay
Design: key: below the threshold = too weak to quantify, mostly under pKd 3.1 to 4
Conditions: plain residues with an end cap or a label only (N-terminal biotin on a linker: ado-ado)

Sequence of Inadl_4, Q8NI35 (Q8NI35 547-651): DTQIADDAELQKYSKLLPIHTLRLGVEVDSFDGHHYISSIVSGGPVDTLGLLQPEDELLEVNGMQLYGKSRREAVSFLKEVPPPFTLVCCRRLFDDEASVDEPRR

Binder	pKd
B1	below the threshold
B2	below the threshold

Target: GRIP2_3, Q9C0E4
Assay: holdup assay
Design: key: below the threshold = too weak to quantify, mostly under pKd 3.1 to 4
Conditions: plain residues with an end cap or a label only (N-terminal biotin on a linker: ado-ado)

Sequence of GRIP2_3, Q9C0E4 (Q9C0E4 238-339): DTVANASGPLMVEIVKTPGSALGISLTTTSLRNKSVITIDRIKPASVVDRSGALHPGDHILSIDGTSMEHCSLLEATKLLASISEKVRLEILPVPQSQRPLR

Binder	pKd
B1	below the threshold
B2	3.56

Target: MAGI2_3, Q86UL8
Assay: holdup assay
Design: key: below the threshold = too weak to quantify, mostly under pKd 3.1 to 4
Conditions: plain residues with an end cap or a label only (N-terminal biotin on a linker: ado-ado)

Sequence of MAGI2_3, Q86UL8 (Q86UL8 600-682): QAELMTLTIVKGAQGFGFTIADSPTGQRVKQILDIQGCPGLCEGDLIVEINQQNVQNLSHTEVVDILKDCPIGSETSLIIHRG

Binder	pKd
B1	3.67
B2	3.51

Target: NOS1, P29475
Assay: holdup assay
Design: key: below the threshold = too weak to quantify, mostly under pKd 3.1 to 4
Conditions: plain residues with an end cap or a label only (N-terminal biotin on a linker: ado-ado)

Sequence of NOS1, P29475 (P29475 9-101): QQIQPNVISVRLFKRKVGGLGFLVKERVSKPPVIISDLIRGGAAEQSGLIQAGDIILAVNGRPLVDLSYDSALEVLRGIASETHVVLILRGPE

Binder	pKd
B1	below the threshold
B2	4.03

Target: LDB3, O75112
Assay: holdup assay
Design: key: below the threshold = too weak to quantify, mostly under pKd 3.1 to 4
Conditions: plain residues with an end cap or a label only (N-terminal biotin on a linker: ado-ado)

Sequence of LDB3, O75112 (O75112 1-94): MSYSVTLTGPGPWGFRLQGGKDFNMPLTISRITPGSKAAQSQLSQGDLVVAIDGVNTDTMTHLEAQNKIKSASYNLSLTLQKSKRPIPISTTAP

Binder	pKd
B1	below the threshold
B2	below the threshold

Target: SCRIB_2, Q14160
Assay: holdup assay
Design: key: below the threshold = too weak to quantify, mostly under pKd 3.1 to 4
Conditions: plain residues with an end cap or a label only (N-terminal biotin on a linker: ado-ado)

Sequence of SCRIB_2, Q14160 (Q14160 857-960): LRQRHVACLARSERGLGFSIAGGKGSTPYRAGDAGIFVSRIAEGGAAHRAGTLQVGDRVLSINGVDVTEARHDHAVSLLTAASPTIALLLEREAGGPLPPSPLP

Binder	pKd
B1	3.76
B2	3.49

Target: NHERF4_2, Q86UT5
Assay: holdup assay
Design: key: below the threshold = too weak to quantify, mostly under pKd 3.1 to 4
Conditions: plain residues with an end cap or a label only (N-terminal biotin on a linker: ado-ado)

Sequence of NHERF4_2, Q86UT5 (Q86UT5 220-308): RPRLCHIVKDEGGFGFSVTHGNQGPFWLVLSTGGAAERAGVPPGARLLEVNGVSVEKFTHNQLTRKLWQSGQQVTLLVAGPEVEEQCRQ

Binder	pKd
B1	below the threshold
B2	3.55

Target: NHERF2_2, Q15599
Assay: holdup assay
Design: key: below the threshold = too weak to quantify, mostly under pKd 3.1 to 4
Conditions: plain residues with an end cap or a label only (N-terminal biotin on a linker: ado-ado)

Sequence of NHERF2_2, Q15599 (Q15599 142-238): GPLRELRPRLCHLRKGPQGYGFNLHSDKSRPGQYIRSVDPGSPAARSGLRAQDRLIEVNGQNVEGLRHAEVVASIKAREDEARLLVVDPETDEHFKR

Binder	pKd
B1	below the threshold
B2	4.76

Target: MAGI1_1, Q96QZ7
Assay: holdup assay
Design: key: below the threshold = too weak to quantify, mostly under pKd 3.1 to 4
Conditions: plain residues with an end cap or a label only (N-terminal biotin on a linker: ado-ado)

Sequence of MAGI1_1, Q96QZ7 (Q96QZ7 1-106): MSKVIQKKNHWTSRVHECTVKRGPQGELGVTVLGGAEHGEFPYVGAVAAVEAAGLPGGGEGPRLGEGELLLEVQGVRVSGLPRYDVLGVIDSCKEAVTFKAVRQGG

Binder	pKd
B1	below the threshold
B2	below the threshold

Target: GRIP2_5, Q9C0E4
Assay: holdup assay
Design: key: below the threshold = too weak to quantify, mostly under pKd 3.1 to 4
Conditions: plain residues with an end cap or a label only (N-terminal biotin on a linker: ado-ado)

Sequence of GRIP2_5, Q9C0E4 (Q9C0E4 544-642): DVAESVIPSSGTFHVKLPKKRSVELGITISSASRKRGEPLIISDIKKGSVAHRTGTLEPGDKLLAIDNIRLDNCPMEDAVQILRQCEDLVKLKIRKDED

Binder	pKd
B1	below the threshold
B2	3.8

Target: IL16_1, Q14005
Assay: holdup assay
Design: key: below the threshold = too weak to quantify, mostly under pKd 3.1 to 4
Conditions: plain residues with an end cap or a label only (N-terminal biotin on a linker: ado-ado)

Sequence of IL16_1, Q14005 (Q14005 210-306): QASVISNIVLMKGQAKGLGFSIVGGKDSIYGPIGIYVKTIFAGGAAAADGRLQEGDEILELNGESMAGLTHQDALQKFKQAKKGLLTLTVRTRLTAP

Binder	pKd
B1	below the threshold
B2	3.5

Target: NHERF4_4, Q86UT5
Assay: holdup assay
Design: key: below the threshold = too weak to quantify, mostly under pKd 3.1 to 4
Conditions: plain residues with an end cap or a label only (N-terminal biotin on a linker: ado-ado)

Sequence of NHERF4_4, Q86UT5 (Q86UT5 464-550): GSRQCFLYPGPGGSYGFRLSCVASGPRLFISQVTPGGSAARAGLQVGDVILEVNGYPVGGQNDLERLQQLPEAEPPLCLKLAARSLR

Binder	pKd
B1	below the threshold
B2	3.99

Target: T9, APBA1_2, Q02410
T9 sequence (Q02410 742-832, limits assumed, looked up): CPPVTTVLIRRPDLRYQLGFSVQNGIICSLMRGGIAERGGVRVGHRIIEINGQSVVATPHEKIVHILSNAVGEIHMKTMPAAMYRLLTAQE
Assay: holdup assay
Design: key: below the threshold = too weak to quantify, mostly under pKd 3.1 to 4
Conditions: plain residues with an end cap or a label only (N-terminal biotin on a linker: ado-ado)

Binder	pKd
B1	3.74
B2	4.1

Target: GRID2IP_2, A4D2P6
Assay: holdup assay
Design: key: below the threshold = too weak to quantify, mostly under pKd 3.1 to 4
Conditions: plain residues with an end cap or a label only (N-terminal biotin on a linker: ado-ado)

Sequence of GRID2IP_2, A4D2P6 (A4D2P6 272-370): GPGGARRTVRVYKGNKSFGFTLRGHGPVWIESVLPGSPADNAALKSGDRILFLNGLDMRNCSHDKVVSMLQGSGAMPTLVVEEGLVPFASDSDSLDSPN

Binder	pKd
B1	4.08
B2	4.74

Target: T10, DLG3_3, Q92796
T10 sequence (Q92796 374-475, limits assumed, looked up): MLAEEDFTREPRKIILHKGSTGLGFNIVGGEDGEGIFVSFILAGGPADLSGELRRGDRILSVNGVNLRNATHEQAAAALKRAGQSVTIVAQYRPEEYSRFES
Assay: holdup assay
Design: key: below the threshold = too weak to quantify, mostly under pKd 3.1 to 4
Conditions: plain residues with an end cap or a label only (N-terminal biotin on a linker: ado-ado)

Binder	pKd
B1	3.75
B2	3.85
